Measurements as given in patent publication US20160046723A1 (BIONOMICS, published 2016).
Numbering of substitutions follows the chain as printed.

Columns and labels:
[1] = biological target: T1, human LGR4 on the cell surface (recombinant on CHO cells; endogenous on HEK-293T cells) (human, UniProt Q9BXB1 25-951); assay: flow cytometry on CHO-LGR4 cells, PE anti-rat IgG secondary
T1 construct: also called CHO-LGR4; GPR48
Procedure: (§1) A flow cytometry-based assay was used to measure the binding of purified anti-LGR4 antibodies 1C5 and 8F3 to recombinant human LGR4 protein overexpressed on the surface of CHO cells. CHO and CHO-LGR4 cells were stained with serial dilutions of anti-LGR4 antibodies at 4° C. Surface staining was detected with PE-conjugated anti-rat IgG secondary antibodies and analyzed on the FACSCalibur (FIG. 4A and FIG. 4B). […] An antibody control (pooled rat IgG) was used as a negative isotype control in these experiments as well as wild-type CHO without LGR4.

[2] = biological target: T2, recombinant mouse LGR4 ectodomain-IgG-Fc fusion (R&D Systems) (mouse, UniProt A2ARI4 25-540, limits assumed); assay: ELISA, plate coated with 0.5 ug/mL mLGR4-Fc, biotinylated antibody detected with streptavidin-HRP
T2 construct: extracellular domain; Bought construct; also called mouse LGR4-Fc; murine LGR4; not shown: IgG Fc
Procedure: (§2) Binding of the anti-LGR4 antibodies to human and murine LGR4 was assessed in vitro using an ELISA-based plate binding assay. The assay measured biotinylated antibody binding to ELISA plate-bound purified recombinant, LGR4 ectodomain-IgG-Fc fusion, with detection of LGR4-bound antibody with horseradish peroxidase-conjugated streptavidin. […] Binding data from two of the antibodies, 8F3 and 1C5 are shown in FIGS. 5A and 5B, respectively.

[3] = biological target: T3, recombinant human LGR4 ectodomain-IgG-Fc fusion (R&D Systems) (human, UniProt Q9BXB1 25-540, limits assumed); assay: ELISA, plate coated with 0.5 ug/mL hLGR4-Fc, biotinylated antibody detected with streptavidin-HRP
T3 construct: Bought construct; also called Human LGR4-Fc; LGR4-Fc; not shown: IgG Fc; detected with anti-human IgG Fc antibody
Procedure: as §2

[4] = biological target: T3, recombinant human LGR4 …; assay: BLI (Octet QK), biotinylated antibody on streptavidin tips, LGR4-Fc 5-80 nM in solution, 1:1 global fit, 30 degrees
Procedure: (§3) Binding kinetics of LGR4 antibodies to human and mouse LGR4 were determined using label-free plate-based Octet QK instrument (Pall ForteBio, LLC, Menlo Park, Calif.) at 30 degrees. Biotinylated 1C5 and 8F3 LGR4 antibodies were diluted to 5 μg/mL in 1×PBS and immobilized on streptavidin tips (Pall ForteBio, LLC, Menlo Park, Calif.). Plate shaking speed was 1000 rpm. The antibodies were captured on the tips for 150 sec. To establish a baseline, the tips were transferred into wells containing binding buffer (1×PBS, supplemented with 0.1% bovine serum albumin and 0.05% Tween 20) for 60 sec. Human LGR4-Fc (R&D Systems) and mouse LGR4-Fc (R&D Systems) were diluted in binding buffer to 80 nM, 40 nM, 20 nM, 10 nM, 5 nM to make a concentration series. Additionally, a buffer-only well was used as reference. 1C5 and 8F3-coated tips were transferred into wells containing human LGR4 and mouse LGR4 dilution series for 180 sec to measure receptor association. The tips were then dipped into binding buffer for 300 sec to measure receptor dissociation.
(§4) Data were collected using ForteBio Data Acquisition software v7.1 and analyzed using ForteBio Data Analysis software v7.1. Data were referenced by subtracting signal from the buffer sample, and fitted to a 1:1 binding model using global fitting with unlinked Rmax. The experiment was repeated three times. Sample curve fits, kinetic rate constants, and KD for 1C5 and 8F3 LGR4 antibodies are shown below in Table 5.

[5] = biological target: T2, recombinant mouse LGR4 …; assay: as above
Procedure: as §3, §4

[6] = biological target: T3, recombinant human LGR4 …; assay: BLI (Octet QK), biotinylated antibody on streptavidin tips, LGR4-Fc in solution; exponent as printed (E+04), KD fits E-04
Procedure: as §3
as §4, with “Sample curve fits, kinetic rate constants, and KD for 1C5 and 8F3 LGR4 antibodies are shown below in Table 5.” left out

[7] = biological target: T3, recombinant human LGR4 …; assay: BLI (Octet QK), biotinylated antibody on streptavidin tips, LGR4-Fc in solution, 1:1 global fit
Procedure: as §3, §4

[8] = biological target: T2, recombinant mouse LGR4 …; assay: as above
Procedure: as §3, §4

[9] = biological target: T3, recombinant human LGR4 …; assay: ELISA, plate coated with 2 or 1 ug/mL hLGR4-Fc, detected with HRP anti-human IgG-CH1
Procedure: (§5) Binding of the humanized anti-LGR4 antibodies 1C5HE and 1C5HG to human and LGR4 was assessed in vitro using an ELISA-based plate binding assay. The assay measured antibody binding to ELISA plate-bound purified recombinant LGR4 ectodomain-IgG-Fc fusion (R&D Systems), with detection of LGR4-bound antibody with horseradish peroxidase-conjugated anti-human IgG-CH1 secondary antibody.

[10] = biological target: T3, recombinant human LGR4 …; assay: ELISA, plate coated with 2 ug/mL hLGR4-Fc, detected with HRP anti-human IgG-CH1
Procedure: as §5

[11] = biological target: T3, recombinant human LGR4 …; assay: BLI (Octet QK); receptor printed 'Human LGR4' a second time for 8F3, possibly mouse LGR4
Procedure: as §3
as §4, with “Sample curve fits, kinetic rate constants, and KD for 1C5 and 8F3 LGR4 antibodies are shown below in Table 5.” left out

[12] = biological target: T3, recombinant human LGR4 …; assay: BLI (Octet QK), biotinylated antibody on streptavidin tips, LGR4-Fc in solution; receptor printed 'Human LGR4' a second time for 8F3, possibly mouse LGR4
Procedure: as §3
as §4, with “Sample curve fits, kinetic rate constants, and KD for 1C5 and 8F3 LGR4 antibodies are shown below in Table 5.” left out

[13] = biological target: T1, human LGR4 on the cell surface …; assay: flow cytometry on CHO-LGR4 cells, PE anti-rat IgG secondary [printed FIB. 4B]
Procedure: as §1

B1: anti-LGR4 rat monoclonal antibody 1C5 (antibody, V domains shown)
VH: QVQLQQSGAELVKPGSSVKISCKASGYTFTSNFMHWIKQQPGNGPEWIGWIYPGDGDTEYNQKFNGKATLIADKSSTTAYMQLRSLTSEDSAVYFCARGNSGYNWFAYWGQGTLVTVSS
VL: DIQMTQSPPVLSASVGDRVTLSCKASQNINKNLDWYQQKHGEAPRLLIYYTNNLQTGIPSRFSGSGSGTDYTLTISSLQPEDVATYFCYQYKSGNTFGAGTKLELK
notes: Rat monoclonal antibody purified from hybridoma supernatant; also called 1C5 mAb; biotinylated 1C5
With B1 the “EC50 (read off the curve)” value [1] was about 0.2 nM, the “EC50 (read off the curve)” value [2] was about 0.1 nM and the “EC50 (read off the curve)” value [3] was about 0.1 nM. The kon [4] was 438000 M⁻¹ s⁻¹, the kon [5] was 339000 M⁻¹ s⁻¹ and the koff [6] was 0.000635 s⁻¹. For the same binder, the Kd [7] was 1.47 nM and the Kd [8] was 1.31 nM.

B2: humanized anti-LGR4 antibody 1C5HG (antibody, human IgG1, V domains shown)
VH: EVQLVQSGAEVKKPGESLKISCKGSGYTFTSNFMHWVRQMPGKGLEWIGWIYPGDGDTEYNQKFNGKVTISADKSISTAYLQWSSLKASDTAMYYCARGNSGYNWFAYWGQGTTVTVSS
VL: EIVMTQSPATLSVSPGERATLSCKASQNINKNLDWYQQKPGQAPRLLIYYTNNLQTGIPARFSGSGSGTEFTLTISSLQSEDFAVYYCYQYKSGNTFGQGTKLEIK
notes: VH fused to the human IgG1 constant region, VL fused to the human kappa constant region; recombinant IgG from HEK 293 cells
B2: binds [9].

B3: humanized anti-LGR4 antibody 1C5HE (antibody, human IgG1, V domains shown)
VH: QVQLVQSGAEVKKPGASVKVSCKASGYTFTSNFMHWVRQAPGQGLEWIGWIYPGDGDTEYNQKFNGKVTMTRDTSTSTVYMELSSLRSEDTAVYYCARGNSGYNWFAYWGQGTTVTVSS
VL: B2 VL
notes: as for B2
B3 was tested, and the “EC50 (read off the curve)” value [10] was about 2 nM.

B4: anti-LGR4 rat monoclonal antibody 8F3 (antibody, V domains shown)
VH: B1 VH with N32Y, M34I, P45L, L70F, T77S, Y80D, R84N, G99S, N100K, G102A
VL: B1 VL with Q37H, R45K, T74I, F87Y, K92N, N95P, A99T
notes: Rat monoclonal antibody purified from hybridoma supernatant; also called 8F3 mAb; biotinylated 8F3
B4 was tested, and the Kd [11] was 0.47 nM, the “EC50 (read off the curve)” value [2] was about 0.08 nM and the “EC50 (read off the curve)” value [3] was about 0.1 nM. For the same binder, the kon [4] was 397000 M⁻¹ s⁻¹, the kon [12] was 357000 M⁻¹ s⁻¹ and the “EC50 (read off the curve)” value [13] was about 0.2 nM. The Kd [7] was 0.47 nM.
